Assay results from the DeepSol protein solubility set.

Experiment: soluble on expression in E. coli; label from the status in PepcDB or PDB records

Sequence	soluble on expression in E. coli
MSLEELLERVFSFSDVDKLIDFISYELQKPVILESADFFLLAYNSYYINHFDSANQQTIFSKKCPVQIFERFLKDGIIEKLKTEPEPFRVNKIESIGLNQRVVVSAKHKGEVMGYIWIQELDQNLTDEELDFLYETSFHVGKIIYKTNKLKQEKEEKAEDLIKRAIYQQFTSEKELRREAERINTVLPSMFSVVILHAANGDGEAVEDLKENIRSYLNLRDKVSHVLTIESNIVIVVASFSQKSSVSSAASEFINKLLTHFHFQKIPTPIYIGIGNEYNHLLKLGKSYTEALEVIKAAEITGNQENIPYEYAKLGIYRYLESIEQKNEFLEYENKDLALLKAKDEESSTELLKTLEVYLLNNCKTKPAAEQLFIHQNTLNYRIKQITEMTSIDLSDFRTRCQLYLDLMLMKKKEGGSHHHHHH	soluble
MSPTGNYLNAITNRRTIYNLKPELPQGVGLDDVKRTVHVILKNTPTAFNSQVNRAVIIVGDTHKRIWDAVASAMPTAEAKKRPESCRDEAYGSVIFFTDEGPTEKLQRDFPALAAAFPTCAAHTTGAVQIQSWTALELLGLGANLQHYNDYVKSALPQDVPIAWTVQSQLVFGVPTALPEEKTFINNVINVYH	soluble
PSIKSAIQGKPVNPLNVSPTRLPILTADEKEFDVKIIVTGDRNQLADLEYVDEDFSTGLTMYTEVEEDIHLSASNLELYVGLVNWICSEYGFPSLDDGAFQRLLLAGMRLTEDQH	not soluble
MNERLIFNPKQLTSARIARGLTMKELAEKAELSRQMISNYESGKTIPKADSILKLISVLQFPRSFFSADTFELYSGATFFRSRSAATKKVRDMQKERLKYVQEVYKVLATYVNFPKVCLPELIEKSIYEITEEEIVKKAEELRKIWGLDLISPVPNLIQLAEQNGVIISEANMSNPTLDAVSRWMIGRPFIMLTDNHESAVRRRFNVAHELGHILLHNGVESIHEYSQTELKNIIEYQANLFAAHFLLPSAAFSDSLLSISLEYYIDLKKYWKVSLQSMIQKIYTLALINDDQRLYLNKRIAKNKWKTKEPYDEQLTIEQPEVFQKVYHMILEHQVIPASQLNQAFKLPKEEIEKILGTAIQTEQDKTEIVLELLRSNK	not soluble
MGHHHHHHSHMANSAGSMANSAGSDKGEQYTLAVGHSLPPALESKLNEIDEISVKTFAKPEEAVDEGKADAYLNVPKEFDSYVNSMTPFKVDVYGNSIDQGSSNAMQLVQSALDQYKNEIVQQRLTNKHIDQSVIQPFTIQQKEADEEKGTSAI	not soluble
KDWEKVVYGFATLYICSFVLDQVVNSARQSVQFFIISNKYEEIGRHINEYPHRGVTIINATGFYTGREVKMMFVLAKKRESTIIFRLIKDIDPNAFVSQSAVIGVYGEGFDHIKVK	not soluble
MLGKGGKRKFDEHEDGLEGKIVSPCDGPSKVSYTLQRQTIFNISLMKLYNHRPLTEPSLQKTVLINNMLRRIQEELKQEGSLRPMFTPSSQPTTEPSDSYREAPPAFSHLASPSSHPCDLGSTTPLEACLTPASLLEDDDDTFCTSQAMQPTAPTKLSPPALLPEKDSFSSALDEIEELCPTSTSTEAATAATDSVKGTSSEAGTQKLDGPQESRADDSKLMDSLPGNFEITTSTGFLTDLTLDDILFADIDTSMYDFDPCTSSSGTASKMAPVSADDLLKTLAPYSSQPVTPSQPFKMDLTELDHIMEVLVGS	soluble
KLLEHVRNILPPNITCLYIRQAEALGLGHAVLCARAAIGDEPFAVILADDLIDAPKGALKQMVEVYGRSGNSILGVETVEASQTGSYGIVETEQLKQFQRITGIVEKPKPEDAPSNLAVVGRYILTPRIFDLLTNLPRGAGNEIQLTDGIAKLLDHEFVLAHPFEGTRYDCGSKLGYLEATVAYGLKHPETGEPFRRLLEKYRTE	not soluble
MGHHHHHHSHYGSLNPKAITISQYGEPFVVGTSRVVEIIRKLRERFGEVRIDIQTNGTLLEPEILGSEADIVMISLDAGSRESYAEITGKDFFERVVKNIEKMSEHTYTVVRTVFMPGINDEELERIAEIASQADELFLQPLSIYRENTELLKRLDVERAESLGDYLQTAYRLSEIASVRIPGCLLLNMRWFLREFEIGEL	not soluble
MGSDKIHHHHHHVKDGFDLVDTGDPFDTITPVIPISDRPRSQSVVAGTLNDPYRRQAVADARSLWRKSIPGSRGVVAAYLASQGIQLDEIPANLRFVLDHPYMKKSGGLYHELHRGPCVLGGIFSEAGQLLGVNQIWVDPKPPHGRASIQMDGDHMPAEIVRGSCKGGFLPLVWPEAATALVVARSLEAALRAYASRPSGLEDAAYWAVVDLKVMSGKMQRQKGVRYSGLPDLSDDTSFVAPHWVKRLVFLQEDDRTGTRQKLESGLKRSMHVRPGLRASIVRIGSAAKGGV	not soluble
RMNVFDEHHFRVILDYAHNADGVRCMSELASKLEVKGKRITVLAGPGDRRDEDIVNIAKAAAGHFDIYICKADDNRRGRGVNEVPELLASSLRAEGIDESQIYCISDEVEAINKGLELANTDDLLMIFGDAITRCWKQIINFNSGHEPEQE	not soluble
MAMPTIRHVRAFIVRGGGADYHDQPGGHWIDDHISTPMARYPEYRQSRQSFGINVLGTLVVEIEASDGTVGFAVTTGGEIGAFIVEKHLARFLEGQLVTDIEKMWDQMYFSTLYYGRKGVVLNTISGVDLALWDLLAKVRKEPVYQLLGGPVRDELVFYATGARPDLAKEMGFIGGKLPLQHGPAEGDAGLRQNLDKLAEMRSRVGDDFWLMYDCWMSLDVPYATRLAQAAHEYGLKWIEECLPPDDYWGYAELRRNVPRGMMVSTGEHEATRWGFRMLLEMQCCDLIQPDVGWCGGITELIKISALADAHNVMVVPHGSSVYSYHFVVTRHNSPFAEFLMMAPKADEVVPMFTPLLLDEPVPVNGRMKVPDAPGFGVRLNPECALVRPYAR	soluble
MSLNQTDLSASSTSSTSRPLVAVTGADGFIGSHLTEDLVRAGYRVRAMAIYNSQGSYGWLDTVPGEVMEHVEVQLGDVRDAGSVRALMRDVQTVYHLAALIAIPYSYVAPRSYVETNITGTLNVLEAARDLGTGRVIHTSTSEVYGTARSVPIHESHPLQGQSPYSATKIGADKLAESYFLSFGLPVVTLRPFNTYGPRQSARAVIPTIISQLAAGRTEIKLGDLRPTRDFNYVADTARAFRAVGEAGPEVLGRTLNAGSGREISVGDTVKLIAQVMGKDVEVKQEDERLRPEGSEVMRLLADHRELQTLTGWQPQVTLEEGLKRTAEWFTDAGNLARYRVDQYTEGHHHHHH	soluble
APQIQYKQLQLARLKILRELSNKRNSTVITMIHRQESIGLFGIPVYKFITIEDSEEILRAIRAAPKDKPIDLIIHTPGGLVLAATQIAKALKAHPAETRVIVPHYAMSGGTLIALAADKIIMDENAVLGPVDPQLGQYPAPSIVKAVEQKGADKADDQTLILADIAKKAINQVQNFVYNLLKDKYGEEKAKELSKILTEGRWTHDYPITVEEAKELGL	not soluble
SEQDKWKTSAQLWQNLDEETIRALWNVQGQLNKLEEERDKAIEEIERQFLESSRPLYEERQRICSLVDRFWFHVLCSHPYTGTKMTNKDRTVLQHLEDVFFTEIENCMQGYQINLKFSPNDYIEDEIIWKQVKYVDDLQGWKGAASGIRWKRQDSIIDPDNEFFSDGEEVLQLTEKGNTVAKLQRKARSLLSWFETEDVTDNLKDVFYEDIWQHCIDWFFARDNASIEEFPVTMEGEQEDIVMID	soluble
MHRTTRIKITELNPHLMCVLCGGYFIDATTIIECLHSFCKTCIVRYLETSKYCPICDVQVHKTRPLLNIRSDKTLQDIVYKLVPGLFKNEMKRRRDFYAAHPSADAAN	soluble
MAHHHHHHMSILCTISGQTPEEPVVSKTGYVFEKRLIEKHILNYGICPVSGEVLTLQDLYPLKNEQVVKPRPITASSIPGLLSILQTEWDAIISEMFTLRTHVNDIRNQLTHSLYQYDAATRVIAKLLKEKNDYKEEVKKLRNQILSIKSGNDLNEFEVGLSEDLLNEMQEVAKNLLMTRKKRNIEHVSSAEQWKEVTNTNEFDVHSAAIPGVTCLSLDINELKYSYYDDHKNHSFFSGGMDGNVYYVSLEQSKVLAKLQGHLKKVTAIVAHPKYSLCISGANDKTVRIWKGDVETNEFATAHVIAKHKDQITSLALHPMENYFVSSSKDNVWILNDLETSRSIKICKDTPSPFRQLAIHPDGIMLGIGCEDSNIHIFDMKSQEYKASLSGHTSHVSYISFSENGYYLASCSKDKTVKLWDLRKAQCFQTIDVEELPRSICFDFSGKYLSLAAGNDVHVFNFEAKTKAVLVNTLSAHTDAVTQTCFGSRTAYLLSSSMDKTVKVWS	not soluble
MSLKAEFLTPVVTIFDEEGNLDKEGNKKVYDHLIDGGVDGLVIMGSTGEFFNMSMDMQKELIDLVTSHVNKRVKVFIGTSRMCINESIELSNYAHNSGADGVMIISPYYFSLDDDSIELFYSEIAKNTEAEIYLYNYPDRTGYDLSPELTLRLARKHKNIVGYKDTVTLMGHTRDLINTMKIEFPEFKVYSGYDENFIHNLMSGGAGCIGGLSNLIPEVCSKWAEAYNNRDMEKVIEIQKYINKAMDFYLITNPFIPAMKKAMNIRGLQISDYMTAPFVKPNEKQVCEIKKLMNELNIEGHHHHHH	soluble
MFSAVHPDSRRDCKKYRYSQTSHQNYWFLKYSEFNLLGKRKIKGNFLHLFHAEEKVLFQSVMLKDQTAKTEKRTQEITCQLSKLANFEENNRKKLQDTERENKKLRNLINSLELKLVSSPENLPLQILFFLISENDELLERVFHFHCATFTKLSDFQLLFFPTPMYVANEYAKSGRNLWNEAIIADAIPEVSGPEAARMKQITDSIKYKESGFLIDRRVNASALIIQSNCSIFNSNF	not soluble
MAKDPRYVGNLPKIGIRPTIDGRRKGVRESLEETTMNMAKAVAKLLEENVFYYNGQPVECVIADTCIGGVKEAAEAAEKFAREGVGVSITVTPCWCYGTETMDMDPHIPKAVWGFNGTERPGAVYLAAVLAGYNQKGLPAFGIYGKDVQDAGDTNIPEDVKEKLIRFAKAGLAVAMMKGKSYLSIGSVSMGIAGSVVQEDFFQNYLGMRNEYVDMSEFVRRIELGIYDKEEYERALKWVKENCKVGPDNNRDGFKRTEEQKEKDWEISVKMALIARDLMVGNKKLEEMGYGEEALGRNAIVAGFQGQRQWTDYFPNGDFMETILNSSFDWNGKRAPYIFATENDNLNGISMLFGYLLTNTAQIFADVRTYWSPEAVKRVTGYTLEGRAANGIIHLINSGAAALDGTGEQTKDGKPVIKPYYELTDEDIKKCLEATQFRPASTEYFRGGGYSTDFLTKGGMPVTISRLNIVKGLGPVLQIAEGYTVDLPEEVHDVLDKRTDPTWPTTWFVPNLTGEGAFKDVYSVMNNWGANHCSISYGHIGADLITLASILRIPVNMHNVPEEKIFRPDAWSMFGTKDLEGADYRACKKLGPIYK	soluble
MSLAPIRLALIEGLSGPFANAGEAVDRNLRIAIEGVNARGGVRLPDGRHPLALVRFDSKNMVDESLLQLQAASDAGIRFVLQGNSSAAAAALSASIARHNDRAPDARMLFLNYAAVDPALTNEACSFWHFRFDASADMRMHALTEVIRADPSVKQVYLIGQDYTFGRQVAQLARRQLGEKRPDIAIAGEVLHPIGKVKDFAPYVARIAASGADAVITGNWGNDLTLLVKAARDAGLKARFFTFYGNSLGAPGAMGEAGVGRVVAVAEWHPNLGGTGSDAFYKAFRARYPAPVDDYPLLRDQMMIDLLATAIERAGTTEAGAVARALEGASLDTGFHRLTLRAEDHQAIQPLVVMQMARAGTPGAPFDIEGSGYGFRTLKVIPPAQTALPTTCRMARYEGHHHHHH	soluble
GVADASDPIRPLVEALNAEAPLKLWSVLVTCLGDVSRDGVIEVSGVALSSFVERMGLQPQAMRVALHRLKRDGWVESRRLGRVGFHRLSDSALTQTRAVAGRIYGPGAGPAPWHLAGMPPDAPDGLSLLPDTLSATPISRRFALICGPLEDVPEDWLLTAPSGRGLPVWVQDVVVEAGCEAEFKALERTLAQIDKVPDTRLERFTLRVLVLHAWRRLILRSSPAAEAALGGARAEISCRARVHQLLDQLGSVEPDWDLPATEDAAS	soluble
